This series deals with the molecule itself. Put plainly: SDS-PAGE.

B1: His6-tagged periplasmic copper binding loop (sensor domain) of CopS, CopS(34-151) (domain or fragment, Pseudomonas aeruginosa, UniProt Q9I033 34-151, looked up)
chain: FSRAIDEHFVELDHMAMSAKLAVFRDELRGLGSEQQMRRREAELLRELARHPDLGLRLNGPDGNLWFERLPQPAHPGLPANRELGAPLEPGNDASPRLTVILDISHHQHFLQRMRQLI
Turning to B1, the binding result was “binds”.

Values taken from paper doi:10.1101/2020.05.13.092544 (bioRxiv, 2020).
